These results are taken from the supplement of paper PMC12042874.

The data set in a line: amyloid nucleation score (Sup35N fusion, yeast selection) (log enrichment); library NNK1; higher = more nucleation; inactive = no reads after selection. A digest of the protocol: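 Peptides of 20 random codons, each fused to Sup35N, were expressed in psi-negative yeast. Cells were induced with 100 μM copper sulfate for 24 hours and grown 7 days at 30°C on medium lacking adenine and uracil, and plasmid inserts before and after selection were Illumina-sequenced. Nucleation scores are DiMSum log enrichments of output over input reads, centred on the mode score of non-aggregating sequences, and sequences under 100 input reads were excluded.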

± gives the uncertainty stated by the source.

The substance KYLSYTVVCGLTNDSWHLMH gave an amyloid nucleation score of -0.196 ± 0.46.

IVLVR: the amyloid nucleation score is -1.21 ± 0.69.

For SLIKLVYWSHARNNCELW, the amyloid nucleation score worked out at 3.5 ± 0.074.

QRERMRGFKFDRLFCIRVWW registered an amyloid nucleation score of -1.03 ± 0.44.

As for KIPLNRIAVNASLRQRYCNP, the amyloid nucleation score was determined as 0.122 ± 0.27.

As for HCLGIRMVRRYILDRRCHWV, the amyloid nucleation score result was “inactive”.

Regarding VVGELLGGTNRFGKRVSSMA, the amyloid nucleation score was -0.057 ± 0.26.

HYDLWCLMFFLVSMMSVNCH came in with an amyloid nucleation score of 0.972 ± 0.54.

As for MRCKCGLYAHSYSALLGNVE, the amyloid nucleation score result is “inactive”.

On to GNCWYV, for which the amyloid nucleation score was -0.16 ± 0.31.

KGISVTCEGK registered an amyloid nucleation score of 1.24 ± 0.79.

FCVTNPWS gave an amyloid nucleation score of 0.308 ± 0.58.

Turning to RESSAAVDTCTILKMTEKVG, the amyloid nucleation score is -0.131 ± 0.66.

For the substance IYGCTCVDFGLSSNS, the amyloid nucleation score is -0.46 ± 0.84.

LDKSGSLVPKRKVTLKDKQR gave an amyloid nucleation score of -0.375 ± 0.41.

Turning to ELYPGF, the amyloid nucleation score is -0.219 ± 1.2.

AVGRPPIRYRNTHSISTDSE yielded an amyloid nucleation score of 0.565 ± 0.31.

As to FYITQTEGQLLLCR, the amyloid nucleation score was -0.148 ± 0.55.

LKHRRSWYLTYIDCAGM: the amyloid nucleation score is -0.294 ± 0.43.

Consider CTHRSFFSSNAIAVRLDLSW, for which the amyloid nucleation score entry was “inactive”.

The substance CWWRV displayed an amyloid nucleation score of -0.761 ± 0.83.

Take GIKFQSVGGGVVANSVR: the amyloid nucleation score result was “inactive”.

Substance HYRCVRGYSFFVLLCDSRIQ showed an amyloid nucleation score of -0.497 ± 0.93.

In turn, GLTCSKAAIKRLG gave an amyloid nucleation score of -0.367 ± 0.54.

Substance LVCFHQRVKIVRYCRTGTLT gave an amyloid nucleation score of -0.095 ± 0.61.

In the case of MAVFSIDRVVPVVTGGCIAE, the amyloid nucleation score amounted to 0.035 ± 0.46.

In turn, SHGRMCQLEYWSLRKGRGAG showed an amyloid nucleation score of 0.229 ± 0.59.

In the case of FYVVRGHGHCWM, the amyloid nucleation score is 0.68 ± 0.33.

For the substance YACQQ, the amyloid nucleation score is 0.314 ± 0.62.

For the substance LGVRRPQEISCHADHASRWL, the amyloid nucleation score is -0.776 ± 1.3.

Regarding MLLEFCKCGVGSIVWCQKFA, the amyloid nucleation score amounted to 4.94 ± 0.11.

Take TIFIAMDFNRVGKLFYRN: the amyloid nucleation score turned out to be 5.368 ± 0.05.

Substance VRAEVGQDRVGRM registered an amyloid nucleation score of 0.09 ± 0.44.

Substance DYNWSCFH had an amyloid nucleation score of 1.28 ± 0.69.

Take FDSFKVRYN: the amyloid nucleation score is -0.724 ± 0.7.

For the substance TGSHLPRDGSVSKCVFRY, the amyloid nucleation score was 0.248 ± 0.53.

Take GTIWYITLAGRFNDVIIYTM: the amyloid nucleation score was determined as 2.4 ± 0.077.

Consider AAFDRNSEGNAPMPVMCPCI, for which the amyloid nucleation score was determined as 0.34 ± 0.75.

As for LILKISMMGK, the amyloid nucleation score result was “inactive”.

Consider LLVSVFTRYFPGNVRVTWGT, for which the amyloid nucleation score was -0.21 ± 0.32.

With LDTVYNVSMKKIKVTSIGQC, the amyloid nucleation score is -0.537 ± 0.47.

RSVGFEGMSNGWCATES had an amyloid nucleation score of 0.634 ± 0.77.

Substance FFIKE registered an amyloid nucleation score of -0.067 ± 0.48.

Turning to YSCMGECFTC, the amyloid nucleation score turned out to be 7.89 ± 0.067.

In turn, YERGNFCWTIILRFLEF displayed an amyloid nucleation score of -1.22 ± 0.78.

With DTLLKF, the amyloid nucleation score came out at 0.916 ± 0.74.

As for LCFLTSIQCTALLDHQLVPR, the amyloid nucleation score stood at 6.17 ± 0.079.

As for MLHWLKLIRTIGRFIRFFRC, the amyloid nucleation score result was “inactive”.

IWYFLCICSLYRLEYHLLDC had an amyloid nucleation score of -0.405 ± 0.25.

As to TKSRRSEGCEMPCHCNEVFV, the amyloid nucleation score turned out to be 0.497 ± 0.72.

The substance LTKASHVRLNNVGV gave an amyloid nucleation score of 0.034 ± 0.6.

Consider HVWSILAISVYNAHRGSRV, for which the amyloid nucleation score is 7.134 ± 0.051.

Substance NPEILCRLKIPFSSCLDSAS returned an amyloid nucleation score of 0.341 ± 0.61.

Take CLSDGTMAFPCPGRQDVRTV: the amyloid nucleation score was -0.015 ± 0.34.

Consider CGLLVVLRANVFILCGYK, for which the amyloid nucleation score was determined as 0.399 ± 0.24.

Take VTGHV: the amyloid nucleation score was -0.019 ± 0.49.

For EVYRVTAYVLFYGICQLTLE, the amyloid nucleation score is -0.53 ± 0.32.

YTWIEHAWSS had an amyloid nucleation score of -0.062 ± 0.55.

IPVVVV came in with an amyloid nucleation score of 0.014 ± 0.24.

Consider NSHDKVGVSILWTGRSRLVA, for which the amyloid nucleation score is -0.003 ± 0.45.

In turn, YTYTQTFLV yielded an amyloid nucleation score of -0.255 ± 0.47.

For DMVYYNEIPKGRYQHPAG, the amyloid nucleation score amounted to 0.593 ± 0.56.

For ILKALF, the amyloid nucleation score worked out at 1.53 ± 0.8.

The substance RYGRYSCSIIEGLCLMSSKW returned an amyloid nucleation score of 0.676 ± 0.95.

HLNLIVTRFASIWVAAFMCR registered an amyloid nucleation score of -0.282 ± 0.77.

Regarding MVSNNNLYPF, the amyloid nucleation score result was “inactive”.

For the substance RRGGFG, the amyloid nucleation score was -0.085 ± 0.69.

Take DIRDYGLWWDKWAEGC: the amyloid nucleation score turned out to be 0.459 ± 0.3.

NCYMIFVKRLPLC yielded an amyloid nucleation score of 0.023 ± 0.41.

In turn, FLCLI yielded an amyloid nucleation score of -2.52 ± 2.7.

As to FLVCSFNYGAAPFFGGFMHY, the amyloid nucleation score was determined as 0.679 ± 0.23.

Consider MNNCKGTI, for which the amyloid nucleation score was -0.679 ± 0.79.

RTMCRFPYGCMTRSYVSG had an amyloid nucleation score of 0.159 ± 0.38.

Regarding NLFSLYGSNFLSP, the amyloid nucleation score was determined as 1.97 ± 0.14.

In turn, DLFYDGCSRFLVMSKGTALV gave an amyloid nucleation score of -0.412 ± 1.2.

VPWFLHELQTVLAKVNRGQR: the amyloid nucleation score is -0.165 ± 0.33.

The substance VYINVYHYWRFSKKYVGKLL had an amyloid nucleation score of 0.318 ± 0.17.

Take LVCSIMWNGVRHAPVRCKPT: the amyloid nucleation score is -0.382 ± 0.47.

Take MLFDV: the amyloid nucleation score was -0.077 ± 0.21.

As to GPFGLGSMSGSIKWRYHVCC, the amyloid nucleation score came out at 0.528 ± 0.43.

TGYLIYSSWC returned an amyloid nucleation score of 0.146 ± 0.4.

YQDFAGDARFGEIRWYYPKS had an amyloid nucleation score of 0.125 ± 0.41.

As for GGWSGRSLRDCVCMVHIKVG, the amyloid nucleation score stood at 0.071 ± 0.75.

With SIFWSRTVLLMN, the amyloid nucleation score was found to be 5.97 ± 0.1.

For the substance DITYVYFSVAELLLMFLTLY, the amyloid nucleation score is 1.33 ± 0.48.

Turning to KFFEFLYKFDPCRRYCRLCQ, the amyloid nucleation score amounted to 0.264 ± 0.36.

Take WFYICVVSFDLGIKRRYRHR: the amyloid nucleation score entry is “inactive”.

Consider ISINLRLVRHRGWGNISCWR, for which the amyloid nucleation score turned out to be 2.2 ± 0.33.

SGRPLNNVWGVTWEIMRLSL showed an amyloid nucleation score of -0.839 ± 0.86.

With RLHSKRAHTRS, the amyloid nucleation score entry is “inactive”.

GRVLDGRILLPVILSVWGCS yielded an amyloid nucleation score of -0.563 ± 1.1.

DNRFERAVWVPHL registered an amyloid nucleation score of 3.78 ± 0.12.

RVIGE: the amyloid nucleation score was found to be 1.36 ± 0.49.

Take TCPWWTVIVFTSESMP: the amyloid nucleation score result was “inactive”.

The substance CDVLFGLLSLRYLPSSLRIG gave an amyloid nucleation score of -0.434 ± 0.48.

The substance MCILTRRFGLMGWNTHYKS displayed an amyloid nucleation score of -0.525 ± 0.94.

The substance FGLRYSMCHHGRGHLKWLYT yielded an amyloid nucleation score of 1.35 ± 0.65.

EGVQKDC: the amyloid nucleation score entry was “inactive”.

Consider FPFFLMCMSSGFYSV, for which the amyloid nucleation score came out at 2.35 ± 0.25.

The substance FYYYSSCHYWYC yielded an amyloid nucleation score of -0.13 ± 0.79.

As to DDWIVRHCFNCLSVWMYLRY, the amyloid nucleation score stood at 0.257 ± 0.9.

The substance SADKSSFKPFLESTASRVQI yielded an amyloid nucleation score of -0.62 ± 1.1.

On to VKHCQFR, for which the amyloid nucleation score was determined as 1.69 ± 0.73.

Substance MNKFNCRIMDDSDSALFSIA had an amyloid nucleation score of 0.486 ± 0.4.

YASCCTDCNWLCFFRRLREA displayed an amyloid nucleation score of 7.041 ± 0.054.

In turn, VLGMCGTRYIDFF gave an amyloid nucleation score of 3.12 ± 0.085.

WSKYVESVRVETVGQVFQLV yielded an amyloid nucleation score of -0.009 ± 0.51.

As to KSWWNDVFVYVYQILEFHCR, the amyloid nucleation score stood at 0.032 ± 1.2.

On to TDGIAVSFTNHDVWMVDAFV, for which the amyloid nucleation score was 0.241 ± 1.4.

Turning to AVFDSKLFLQSWVASTGIRV, the amyloid nucleation score result was “inactive”.

Take KWLTFVMDMSDLCYSSFNVN: the amyloid nucleation score entry was “inactive”.

In turn, GFSRQSTWMCRKWSTNPRTW displayed an amyloid nucleation score of 1.15 ± 0.34.

For LLDMHYTLEWCTKCYTDKVQ, the amyloid nucleation score amounted to 0.121 ± 0.26.

Consider VPAVSCMVFTAQFDSGVYSC, for which the amyloid nucleation score was -0.03 ± 0.73.

As to MRVVPHVWLTWHEATVVLQV, the amyloid nucleation score was 0.807 ± 0.28.

RILAIIVGVSAVSKKSNNEL showed an amyloid nucleation score of 0.913 ± 0.48.

The substance SLVVEMVNYE had an amyloid nucleation score of -0.039 ± 0.29.

As for FCEHNVISYNESLRM, the amyloid nucleation score was determined as 0.352 ± 0.53.

In the case of ARMASHRTCLNVYLRLCAYL, the amyloid nucleation score is -0.343 ± 0.31.

VLMVPWVDGSCSS had an amyloid nucleation score of -1.06 ± 1.3.

For FMLVAG, the amyloid nucleation score stood at 0.746 ± 0.53.

Substance YLILLWWTNCRARAKERVDR yielded an amyloid nucleation score of -0.155 ± 1.1.

With GLAWTYLRPW, the amyloid nucleation score was 0.143 ± 0.32.

Take VYLWGPKVYRSDWMGRHFK: the amyloid nucleation score is 0.855 ± 0.72.

The substance TTDPVWFSAI came in with an amyloid nucleation score of 0.346 ± 0.4.

In turn, HSDVHNCFLLCRCTGYCLYS gave an amyloid nucleation score of 3.96 ± 0.16.

The substance ANLCSCSTTMA displayed an amyloid nucleation score of 0.236 ± 0.39.

The substance QECMKLNLAFYWSDCVVRSF displayed an amyloid nucleation score of 1.76 ± 0.49.

Substance KVFVSALCC yielded an amyloid nucleation score of 4.19 ± 0.067.

KCTENLFRHCIRLEGSTWKF yielded an amyloid nucleation score of -1.34 ± 2.7.

CRLYVVGFFKKL: the amyloid nucleation score result was “inactive”.

With GNAFFTYMINNYVSYFWHMP, the amyloid nucleation score amounted to 6.42 ± 0.059.

In the case of FHVDDHKWRLPDGELSRTAM, the amyloid nucleation score is -0.341 ± 0.78.

Substance GAICQGLINDVVGRGDGMMR came in with an amyloid nucleation score of 1.19 ± 0.97.

The substance VCLVFVFDVSTVPNICCYAT came in with an amyloid nucleation score of -0.189 ± 0.37.

PTRCQVWLGGTLHVRVVDLS registered an amyloid nucleation score of -0.424 ± 0.4.

SFDADFSFRVRVFYDQSISI: the amyloid nucleation score was -0.035 ± 0.48.

As to SLQAIGNWYHD, the amyloid nucleation score was determined as 0.038 ± 0.6.

TDPRNNACVFYVCYYTSCWD: the amyloid nucleation score was 0.923 ± 0.66.

Substance RFVMRPFATVSTFSISVPAC came in with an amyloid nucleation score of -0.638 ± 0.74.

As for LYGGNSRFRLSSYRYGMFWN, the amyloid nucleation score entry is “inactive”.
